Patent US20230242607A1 (EUTILEX, published 2023)
Where two headings read alike, the source gives them in different places.

Columns and labels:
Experiment in all cases: SPR, Biacore T200; IL-2-Fc on CM5 chip, receptor injected; 1:1 model
IL2-RB [1] = molecular target: T1, IL2-RB (UniProt P14784 27-239, limits assumed)
T1 construct: Bought recombinant protein (Sino); also called CD122; IL-2Rβ
T1 sequence (looked up): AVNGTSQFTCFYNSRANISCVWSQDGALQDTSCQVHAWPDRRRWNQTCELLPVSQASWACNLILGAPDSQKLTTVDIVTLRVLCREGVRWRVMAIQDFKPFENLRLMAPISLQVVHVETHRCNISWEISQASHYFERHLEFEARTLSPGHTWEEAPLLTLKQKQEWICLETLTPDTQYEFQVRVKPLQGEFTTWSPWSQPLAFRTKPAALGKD
Protocol: The affinity of IL-2 variants to IL-2 receptors, IL2-RA and IL2-RB, was analyzed using surface plasmon resonance (SPR). The IL-2 variants were diluted to a concentration of 2 ug/mL then immobilized on CM5 chip (GE Healthcare, Cat#BR-1005-30). The receptors IL-2RA or IL-2RB (Sino) were injected at concentrations 100, 50, 25, 12.5, 6.25, 3.125 nM with an association time of 150 seconds and dissociation time of 240 seconds. Biacore T200 (GE healthcare) was used to measure and analyze affinity of each IL-2 variant, where the results were analyzed with a 1:1 binding model by BIAevaluation software.

IL2-RA = molecular target: T2, IL2-RA (UniProt P01589 22-213, limits assumed)
T2 construct: Bought recombinant protein (Sino); also called CD25; IL-2Rα
T2 sequence (looked up): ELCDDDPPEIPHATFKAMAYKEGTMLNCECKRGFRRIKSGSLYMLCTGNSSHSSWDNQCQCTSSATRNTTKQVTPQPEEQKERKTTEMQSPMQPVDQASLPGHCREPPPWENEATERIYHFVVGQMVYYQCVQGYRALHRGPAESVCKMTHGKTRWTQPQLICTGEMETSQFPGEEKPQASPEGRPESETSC
Protocol: (§1) The affinity of additional IL-2 variants to IL-2 receptors, IL2-RA and IL2-RB, was analyzed using surface plasmon resonance (SPR). The IL-2 variants were diluted to a concentration of 2 ug/mL then immobilized on CM5 chip (GE Healthcare, Cat#BR-1005-30). Biacore T200 (GE healthcare) was used to measure and analyze affinity of each IL-2 variant, where the results were analyzed with a 1:1 binding model by BIAevaluation software, as described in Example 4.

IL2-RB [2] = molecular target: T1, IL2-RB; remark: listed apart in the source
Protocol: as §1

| Binder | Kd (IL2-RB [1]) [nM] | koff (IL2-RB [1]) [s⁻¹] | kon (IL2-RB [1]) [M⁻¹ s⁻¹] | Kd (IL2-RA) [nM] | koff (IL2-RA) [s⁻¹] | kon (IL2-RA) [M⁻¹ s⁻¹] | Kd (IL2-RB [2]) [nM] | koff (IL2-RB [2]) [s⁻¹] | kon (IL2-RB [2]) [M⁻¹ s⁻¹] |
| --- | --- | --- | --- | --- | --- | --- | --- | --- | --- |
| IL2_V1 Fc fusion protein (Fc fusion) APTSSSTKKTQLQLEHLLLDLQMILNGINNYKNPKLTAMLTKKFYMPKKATELKHLQCLEEELKPLEEVLNLAQSKNFHLDPRDVVSNINVFVLELKGSETTFMCEYADETATIVEFLNRWITFCQSIISTLTGGGGSSNTKVDKRVEPKSCDKTHTCPPCPAPPVAGPSVFLFPPKPKDTLMISRTPEVTCVVVDVSHEDPEVQFNWYVDGVEVHNAKTKPREEQFNSTFRVVSVLTVVHQDWLNGKEYKCKVSNKGLPAPIEKTISKTKGQPREPQVYTLPPSREEMTKNQVSLTCLVKGFYPSDIAVEWESNGQPENNYKTTPPMLDSDGSFFLYSKLTVDKSRWQQGNVFSCSVMHEALHNHYTQKSLSLSPGK | 66.6 | 0.0116 | 174000 | – | – | – | – | – | – |
| IL2_V5 Fc fusion protein (Fc fusion) APTSSSTKKTQLQLEHLLLDLQMILNGINNYKNPKLTAMLTKKFYMPKKATELKHLQCLEEELKPLEEVLNLAQSKNFHFDPRDVVSNINVIVLELKGSETTFMCEYADETATIVEFLNRWITFCQSIISTLTGGGGSSNTKVDKRVEPKSCDKTHTCPPCPAPPVAGPSVFLFPPKPKDTLMISRTPEVTCVVVDVSHEDPEVQFNWYVDGVEVHNAKTKPREEQFNSTFRVVSVLTVVHQDWLNGKEYKCKVSNKGLPAPIEKTISKTKGQPREPQVYTLPPSREEMTKNQVSLTCLVKGFYPSDIAVEWESNGQPENNYKTTPPMLDSDGSFFLYSKLTVDKSRWQQGNVFSCSVMHEALHNHYTQKSLSLSPGK | 76.7 | 0.00936 | 122000 | – | – | – | – | – | – |
| IL2_V4_R38A Fc fusion protein (Fc fusion) APTSSSTKKTQLQLEHLLLDLQMILNGINNYKNPKLTAMLTFKFYMPKKATELKHLQCLEEELKPLEEVLNLAQSKNFHFDPRDVISNINVFVLELKGSETTFMCEYADETATIVEFLNRWITFCQSIISTLTGGGGSSNTKVDKRVEPKSCDKTHTCPPCPAPPVAGPSVFLFPPKPKDTLMISRTPEVTCVVVDVSHEDPEVQFNWYVDGVEVHNAKTKPREEQFNSTFRVVSVLTVVHQDWLNGKEYKCKVSNKGLPAPIEKTISKTKGQPREPQVYTLPPSREEMTKNQVSLTCLVKGFYPSDIAVEWESNGQPENNYKTTPPMLDSDGSFFLYSKLTVDKSRWQQGNVFSCSVMHEALHNHYTQKSLSLSPGK | – | – | – | 3.31 | 0.00227 | 685000 | 7.33 | 0.00556 | 759000 |
| IL2_V3 Fc fusion protein (Fc fusion) APTSSSTKKTQLQLEHLLLDLQMILNGINNYKNPKLTAMLTKKFYMPKKATELKHLQCLEEELKPLEEVLNLAQSKNFHFDPRDLVSNINVFVLELKGSETTFMCEYADETATIVEFLNRWITFCQSIISTLTGGGGSSNTKVDKRVEPKSCDKTHTCPPCPAPPVAGPSVFLFPPKPKDTLMISRTPEVTCVVVDVSHEDPEVQFNWYVDGVEVHNAKTKPREEQFNSTFRVVSVLTVVHQDWLNGKEYKCKVSNKGLPAPIEKTISKTKGQPREPQVYTLPPSREEMTKNQVSLTCLVKGFYPSDIAVEWESNGQPENNYKTTPPMLDSDGSFFLYSKLTVDKSRWQQGNVFSCSVMHEALHNHYTQKSLSLSPGK | 218 | 0.0179 | 82400 | – | – | – | – | – | – |
| IL2_V4_R38A_F42A Fc fusion protein (Fc fusion) APTSSSTKKTQLQLEHLLLDLQMILNGINNYKNPKLTAMLTAKFYMPKKATELKHLQCLEEELKPLEEVLNLAQSKNFHFDPRDVISNINVFVLELKGSETTFMCEYADETATIVEFLNRWITFCQSIISTLTGGGGSSNTKVDKRVEPKSCDKTHTCPPCPAPPVAGPSVFLFPPKPKDTLMISRTPEVTCVVVDVSHEDPEVQFNWYVDGVEVHNAKTKPREEQFNSTFRVVSVLTVVHQDWLNGKEYKCKVSNKGLPAPIEKTISKTKGQPREPQVYTLPPSREEMTKNQVSLTCLVKGFYPSDIAVEWESNGQPENNYKTTPPMLDSDGSFFLYSKLTVDKSRWQQGNVFSCSVMHEALHNHYTQKSLSLSPGK | – | – | – | 1230 | 0.00562 | 4560 | 7.5 | 0.00504 | 671000 |
| IL2_V2 Fc fusion protein (Fc fusion) APTSSSTKKTQLQLEHLLLDLQMILNGINNYKNPKLTAMLTKKFYMPKKATELKHLQCLEEELKPLEEVLNLAQSKNFHFRPRDVVSNINVFVLELKGSETTFMCEYADETATIVEFLNRWITFCQSIISTLTGGGGSSNTKVDKRVEPKSCDKTHTCPPCPAPPVAGPSVFLFPPKPKDTLMISRTPEVTCVVVDVSHEDPEVQFNWYVDGVEVHNAKTKPREEQFNSTFRVVSVLTVVHQDWLNGKEYKCKVSNKGLPAPIEKTISKTKGQPREPQVYTLPPSREEMTKNQVSLTCLVKGFYPSDIAVEWESNGQPENNYKTTPPMLDSDGSFFLYSKLTVDKSRWQQGNVFSCSVMHEALHNHYTQKSLSLSPGK | 124 | 0.0158 | 128000 | – | – | – | – | – | – |
| supMD IL-2 Fc fusion protein (Fc fusion) APTSSSTKKTQLQLEHLLLDLQMILNGINNYKNPKLTAMLTKKFYMPKKATELKHLQCLEEELKPLEEVLNLAQSKNFHFDPRDVVSNINVFVLELKGSETTFMCEYADETATIVEFLNRWITFCQSIISTLTGGGGSSNTKVDKRVEPKSCDKTHTCPPCPAPPVAGPSVFLFPPKPKDTLMISRTPEVTCVVVDVSHEDPEVQFNWYVDGVEVHNAKTKPREEQFNSTFRVVSVLTVVHQDWLNGKEYKCKVSNKGLPAPIEKTISKTKGQPREPQVYTLPPSREEMTKNQVSLTCLVKGFYPSDIAVEWESNGQPENNYKTTPPMLDSDGSFFLYSKLTVDKSRWQQGNVFSCSVMHEALHNHYTQKSLSLSPGK | 29.5 | 0.004 | 136000 | – | – | – | – | – | – |
| IL2_V4 Fc fusion protein (Fc fusion) APTSSSTKKTQLQLEHLLLDLQMILNGINNYKNPKLTAMLTKKFYMPKKATELKHLQCLEEELKPLEEVLNLAQSKNFHFDPRDVISNINVFVLELKGSETTFMCEYADETATIVEFLNRWITFCQSIISTLTGGGGSSNTKVDKRVEPKSCDKTHTCPPCPAPPVAGPSVFLFPPKPKDTLMISRTPEVTCVVVDVSHEDPEVQFNWYVDGVEVHNAKTKPREEQFNSTFRVVSVLTVVHQDWLNGKEYKCKVSNKGLPAPIEKTISKTKGQPREPQVYTLPPSREEMTKNQVSLTCLVKGFYPSDIAVEWESNGQPENNYKTTPPMLDSDGSFFLYSKLTVDKSRWQQGNVFSCSVMHEALHNHYTQKSLSLSPGK | 29 | 0.00511 | 176000 | – | – | – | 8.99 | 0.00532 | 592000 |
| IL2_V4_F42A Fc fusion protein (Fc fusion) APTSSSTKKTQLQLEHLLLDLQMILNGINNYKNPKLTRMLTAKFYMPKKATELKHLQCLEEELKPLEEVLNLAQSKNFHFDPRDVISNINVFVLELKGSETTFMCEYADETATIVEFLNRWITFCQSIISTLTGGGGSSNTKVDKRVEPKSCDKTHTCPPCPAPPVAGPSVFLFPPKPKDTLMISRTPEVTCVVVDVSHEDPEVQFNWYVDGVEVHNAKTKPREEQFNSTFRVVSVLTVVHQDWLNGKEYKCKVSNKGLPAPIEKTISKTKGQPREPQVYTLPPSREEMTKNQVSLTCLVKGFYPSDIAVEWESNGQPENNYKTTPPMLDSDGSFFLYSKLTVDKSRWQQGNVFSCSVMHEALHNHYTQKSLSLSPGK | – | – | – | 6.75 | 0.000789 | 117000 | 9.43 | 0.00492 | 522000 |
